Assay results published in patent US20020168358A1, “Treatment of T-cell mediated diseases” (priority 2001, published 2002).

B1: SLC: secondary lymphoid organ chemokine, ligand of the CCR7 receptor (protein, UniProt O00585 24-134, looked up)
C-C motif chemokine 21: SDGGAQDCCLKYSQRKIPAKVVRSYRKQEPSLGCSIPAILFLPRKRSQAELCADPKELWVQQLMQHLDKTPSPQKPAQGCRKDRGASKTGKKGKGSKGCKRTERSQTPKGP
B2: MIP-1α: chemokine tested for comparison in T cell chemotaxis (protein, UniProt P10147 24-92, looked up)
C-C motif chemokine 3: SLAADTPTACCFSYTSRQIPQNFIADYFETSSQCSKPGVIFLTKRSRQVCADPSEEWVQKYVSDLELSA
B3: Tarc: chemokine tested for comparison in T cell chemotaxis (protein, UniProt Q92583 24-94, looked up)
C-C motif chemokine 17: ARGTNVGRECCLEYFKGAIPLRKLKTWYQTSEDCSRDAIVFVTVQGRAICSDPNNKRVKNAVKYLQSLERS
B4: RANTES: chemokine tested for comparison in T cell chemotaxis (protein, UniProt P13501 24-91, looked up)
C-C motif chemokine 5: SPYSSDTTPCCFAYIARPLPRAHIKEYFYTSGKCSNPAVVFVTRKNRQVCANPEKKWVREYINSLEMS
B5: MIP-3β: chemokine, macrophage inflammatory protein-3b, ligand of the CCR7 receptor (protein, UniProt Q99731 22-98, looked up)
C-C motif chemokine 19: GTNDAEDCCLSVTQKPIPGYIVRNFHYLLIKDGCRVPAVVFTTLRGRQLCAPPDQPWVERIIQRLQRTSAKMKRRSS
B6: MIP-1β: chemokine tested for comparison in T cell chemotaxis (protein, UniProt P13236 24-92, looked up)
C-C motif chemokine 4: APMGSDPPTACCFSYTARKLPRNFVVDYYETSSLCSQPAVVFQTKRSKQVCADPSESWVQEYVYDLELN

Tests used:
CCR7 = target: T1, CCR7 (Homo sapiens, UniProt P32248); test: Binding assay: 125I-MIP-3β binding to HUT-78 cell membranes (scintillation proximity); details: binding assay of Example 1, HUT-78 membranes, read-out: IC50, inhibition of binding of MIP-3β to CCR7
T1 construct: The cells were then disrupted with a Polytron homogenizer and centrifuged at 30,000× g for 10 min; endogenous in cells; host or cells: HUT-78 cells (membrane pellet)
T1 sequence (P32248 25-378): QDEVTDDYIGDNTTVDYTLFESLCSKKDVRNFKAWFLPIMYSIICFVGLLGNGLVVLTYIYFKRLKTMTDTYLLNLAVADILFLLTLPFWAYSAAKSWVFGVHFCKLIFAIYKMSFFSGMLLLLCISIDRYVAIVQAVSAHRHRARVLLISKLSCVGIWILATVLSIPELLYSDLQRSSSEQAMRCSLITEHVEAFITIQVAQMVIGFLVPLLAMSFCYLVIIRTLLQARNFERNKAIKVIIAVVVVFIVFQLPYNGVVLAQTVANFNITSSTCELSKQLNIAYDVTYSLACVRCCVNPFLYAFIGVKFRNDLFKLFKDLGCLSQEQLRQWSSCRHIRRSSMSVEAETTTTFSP
Protocol: HUT-78 cells were cultured in RPMI media with 10% FBS, pen-strep (100 u/ml), L-glutamine (2 mM), HEPES (10 mM) and non-essential amino acids (0.1 mM). The cells were collected by centrifugation at 170× g for 5 min and resuspended to 50×10^ 6 cells/ml in Dulbeccoco's Ca^2+ and Mg^2+ free media containing 8 mg/l aprotinin at 4° C. The cells were then disrupted with a Polytron homogenizer and centrifuged at 30,000× g for 10 min. The pellet was washed 6 times and stored at −80° C.
The binding assay was run in a buffer containing HEPES (50 mM), CaCl2 (1 mM), MgCl2 (5 mM), NaCl (150 mM) and BSA (0.5 mg/ml), pH 7.2. The pellet was resuspended to 8×10^6 cell equivalents/ml and 50 μl was added to microtiter plate wells containing 130 μl of buffer with various concentrations of compounds, and 0.5 mg PEI-treated wheatgerm agglutinin-coated scintillation proximity beads (Amersham). The binding was initiated by the addition of 20 μl of 600 pM ^125I-MIP-3β (New England Nuclear). The microtiter plate was mixed and then the beads were allowed to settle overnight before counting in a Microbeta plus liquid scintillation counter (Wallac).

[1] = system: PHA-activated human T cells; test: In vitro chemotaxis of T cells (48-well Boyden chamber); format: cell-based; details: for effect on T cell chemotaxis compared with other chemokines: Hut 78 and primary T cells; for chemoattractant activity for PHA-activated human T cells: FIG. 3
Protocol: Lymphocyte and PHA blast chemotaxis to appropriate chemokine was measured using a 48-well Boyden chamber (Neuro Probe Inc., Cabin John, Md.). Agonists were diluted in RPMI media (BioWhittaker, Walkersville, Md.) containing 0.1% bovine serum albumin (Invitrogen, Carlsbad, Calif.) and added to the bottom wells of the chemotaxis chamber. Peripheral mononuclear blood cells were resuspended in RPMI/BSA media at a concentration of 2.5×10^6 cells per ml. Fifty μl of this cell suspension was then added to the upper chamber. A 5 μm PVP-free polycarbonate filter, coated on the bottom with 10 microgram/ml of human type IV collagen (Neuro Probe Inc.), was used to separate the wells of the chamber Chambers were incubated for 60 minutes in a 5% CO2-humidified atmosphere at 37° C. After the incubation period, the filters were removed, the top side was scraped to remove non-migrating cells, and the filters were stained with Diff-Quik stain (Dade Behring AG, Dudingen, Switzerland). The number of PMBC cells migrating was counted by light microscopy. The mean of three high powered fields was then determined. The number of migrating PMBC cells was calculated by subtracting […].

Hut-78 cells = test: In vitro chemotaxis of Hut-78 cells; format: cell-based; details: FIG. 2

Molecule | effect on T cell chemotaxis compared with other chemokines [1] | also measured
O=S1(=O)COc2cc(NCCCc3cnco3)ccc2N1 [Example 3] | – | IC50 (CCR7): 1.5 µM
MCP-1: chemokine tested for comparison in T cell chemotaxis | minimal effects | –
IP-10: chemokine tested for comparison in T cell chemotaxis | minimal effects | –
Cc1cc(C)c2c(=O)n(CC(O)CN(C)CC3OCCCO3)sc2c1 (stereo not drawn) [Example 4] | – | IC50 (CCR7): 2.2 µM
MCP-3: chemokine tested for comparison in T cell chemotaxis | minimal effects | –
B1 | most potent T cell chemotactic agents | chemoattractant activity for PHA-activated human T cells [1]: potent chemoattractants; chemoattractant activity for Hut-78 cells (Hut-78 cells): potent chemoattractants
B2 | minimal effects | –
B3 | minimal effects | –
B4 | minimal effects | –
B5 | most potent T cell chemotactic agents | chemoattractant activity for PHA-activated human T cells [1]: potent chemoattractants; chemoattractant activity for Hut-78 cells (Hut-78 cells): potent chemoattractants
B6 | minimal effects | –
